Ends that are not written are not given here.
T1: CRF2R
T1 sequence (Q13324 whole entry, species assumed, looked up): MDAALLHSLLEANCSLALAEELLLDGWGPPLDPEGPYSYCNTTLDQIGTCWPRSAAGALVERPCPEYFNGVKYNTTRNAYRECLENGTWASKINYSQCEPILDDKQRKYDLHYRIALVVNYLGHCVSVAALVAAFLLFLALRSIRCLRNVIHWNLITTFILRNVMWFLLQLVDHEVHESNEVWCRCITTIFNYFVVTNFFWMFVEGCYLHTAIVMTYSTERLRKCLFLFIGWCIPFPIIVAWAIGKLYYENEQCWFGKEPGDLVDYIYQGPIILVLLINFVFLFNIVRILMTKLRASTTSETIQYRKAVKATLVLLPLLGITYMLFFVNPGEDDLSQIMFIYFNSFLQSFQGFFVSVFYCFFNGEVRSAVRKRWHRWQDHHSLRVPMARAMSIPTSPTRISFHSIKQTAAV


Key:
CRF2R = target: T1, CRF2R; experiment: cell-based or functional assay
CRF1R = experiment: cell-based or functional assay

| CRF2R EC50 (CRF2R) | CRF2R Emax (CRF2R) | CRF1R EC50 (CRF1R) | CRF1R Emax (CRF1R) | Binder |
| --- | --- | --- | --- | --- |
| 90.8 nM | 62% | > 100 nM | 9% | IVLSLDVPIGLLQILLEQTKADQLAQQAHSNRKLLDIA-NH2 [SEQ ID NO 159] |
| 7.21 nM | 91.4% | 409 nM | 89.7% | DNPSLSIDLPFQLLRTLLELARTQSQRERAEQNAIIFASV-NH2 [SEQ ID NO 182] |
| 100 nM | 65.2% | 1000 nM | 6.05% | DNPSLSIDLPTYLLRTLLELARTQSQRERAEQNAIIFASV-NH2 [SEQ ID NO 173] |
| 2.24 nM | 92% | > 100 nM | 26% | IVLSLDVPIGLLQILLEMARAEQLAQQAHSNRKLMEII-NH2 [SEQ ID NO 164] |
| 5.17 nM | 96.5% | 1000 nM | 55.7% | DNPSLSIDLPLFLLRTLLELARTQSQRERAEQNAIIFASV-NH2 [SEQ ID NO 178] |
| 25.1 nM | 100% | 323 nM | 100% | ZGPPISIDLPHWLLRKMIEIEKQEKEKQQAANNRLLLDTI (C-terminal amide) [SEQ ID NO 186] |
| 14.6 nM | 100% | 162 nM | 96% | ZGPPISIDLPLLLLRKMIEIEKQEKEKQQAANNRLLLDTI (C-terminal amide) [SEQ ID NO 188] |
| 10.3 nM | 100% | 31.6 nM | 72% | ZGPPISIDLPWFLLRKMIEIEKQEKEKQQAANNRLLLDTI (C-terminal amide) [SEQ ID NO 187] |
| 5.22 nM | 97.8% | 154 nM | 100% | DNPSLSIDLPFILLRTLLELARTQSQRERAEQNAIIFASV-NH2 [SEQ ID NO 181] |
| 9.15 nM | 87% | > 100 nM | 10% | IVLSLDVPIGLLQTLLELARTQSQRERAEQNRIIFDSV-NH2 [SEQ ID NO 160] |
| 8.98 nM | 100% | 358 nM | 95.8% | DNPSLSIDLPFHLLRTLLELARTQSQRERAEQNAIIFASV-NH2 [SEQ ID NO 185] |
| 7.93 nM | 100% | 415 nM | 57.5% | DNPSLSIDLPFYLLRTLLELARTQSQRERAEQNAIIFASV-NH2 [SEQ ID NO 183] |
| 10.2 nM | 96% | 260 nM | 98% | ZGPPISIDLPFQLLRKMIEIEKQEKEKQQATTNRLLLATV (C-terminal amide) [SEQ ID NO 17] |
| 8.3 nM | 100% | 63.7 nM | 65% | ZGPPISIDLPFLLLRKMIEIEKQEKEKQQAANNRLLLDTI (C-terminal amide) [SEQ ID NO 191] |
| 5.29 nM | 97% | 106 nM | 100% | ZGPPISIDLPFQLLRKMIEIEKQEKEKQQATTNRLLLDRV (C-terminal amide) [SEQ ID NO 18] |
| 7.42 nM | 75% | 232 nM | 83% | ZGPPISIDLPFQLLRKMIEIEKQEKEKQQATTNRLLLARV (C-terminal amide) [SEQ ID NO 19] |
| 39.6 nM | 31% | > 100 nM | 9% | ZGPPISIDLPFVLLRKMIEIEKQEKEKQQAANNRLLLDTI (C-terminal amide) [SEQ ID NO 190] |
| 7 nM | 96% | 62.2 nM | 57% | ZGPPISIDLPFILLRKMIEIEKQEKEKQQAANNRLLLDTI (C-terminal amide) [SEQ ID NO 189] |

| CRF2R EC50 (CRF2R) | CRF2R Emax (CRF2R) | CRF1R EC50 (CRF1R) | CRF1R Emax (CRF1R) | Binder |
| --- | --- | --- | --- | --- |
| 13.5 nM | 100% | 1000 nM | 68% | ZGPPISIDVPFQLLRKMIEIEKQEKEKQQATTNARILARV (C-terminal amide) [SEQ ID NO 172] |
| 3.7 nM | 99% | 438 nM | 95% | IVLSLDVPIGLLQILIEIEKQEKEKQQAANNARILARV-NH2 [SEQ ID NO 166] |
| 17.8 nM | 93% | 978 nM | 26% | ZGPPISIDVPTYLLRILIEIEKQEKEKQQATTNARILARV (C-terminal amide) [SEQ ID NO 169] |
| 75 nM | 83% | 1000 nM | 9% | ZGPPISIDVPTYLLRKMIEIEKQEKEKQQATTNARILARV (C-terminal amide) [SEQ ID NO 170] |
| 17.6 nM | 100% | 206 nM | 99% | ZGPPISIDVPFQLLRILIEIEKQEKEKQQATTNARILARV (C-terminal amide) [SEQ ID NO 171] |
| 4.9 nM | 75% | 1000 nM | 52% | IVLSLDVPIGLLQILIEIEKQEKEKQQAATTNARILARV-NH2 [SEQ ID NO 168] |
| 3.72 nM | 96.5% | 486 nM | 77.3% | DNPSLSIDLPFFLLRTLLELARTQSQRERAEQNAIIFASV-NH2 [SEQ ID NO 184] |
| 4.42 nM | 97.2% | 1000 nM | 29.1% | DNPSLSIDLPLLLLRTLLELARTQSQRERAEQNAIIFASV-NH2 [SEQ ID NO 174] |
| 5.42 nM | 92.2% | 1000 nM | 34.8% | DNPSLSIDLPLILLRTLLELARTQSQRERAEQNAIIFASV-NH2 [SEQ ID NO 175] |
| 10.2 nM | 92.5% | 477 nM | 78.9% | DNPSLSIDLPLHLLRTLLELARTQSQRERAEQNAIIFASV-NH2 [SEQ ID NO 179] |
| 3.14 nM | 95.7% | 125 nM | 99.3% | DNPSLSIDLPFLLLRTLLELARTQSQRERAEQNAIIFASV-NH2 [SEQ ID NO 180] |
| > 100 nM | 75% | > 100 nM | 19% | IVLSLDVPIGLLQEVLEMARAEQLAQQAHSNRKLMEII-NH2 [SEQ ID NO 165] |
| 4.49 nM | 96% | > 100 nM | 13% | IVLSLDVPIGLLQILLEQARARAAREQATSNRKLMEII-NH2 [SEQ ID NO 163] |
| 13 nM | 100% | 1000 nM | 15% | IVLSLDVPIGLLQILLEQEKQEKEKQQATTNARILARV-NH2 [SEQ ID NO 167] |
| 5.63 nM | 97.7% | 613 nM | 69.2% | DNPSLSIDLPLYLLRTLLELARTQSQRERAEQNAIIFASV-NH2 [SEQ ID NO 177] |
| 12.6 nM | 90.2% | 1000 nM | 26.9% | DNPSLSIDLPLQLLRTLLELARTQSQRERAEQNAIIFASV-NH2 [SEQ ID NO 176] |
| > 100 nM | 7% | > 100 nM | 11% | SEEPPISLDVPIGLLQEVLEMARAEQLAQQAHSNRKLMEII-NH2 [SEQ ID NO 162] |
| > 100 nM | 88% | > 100 nM | 77% | SEEPPISLDLTFHLLREVLEMARAEQLAQQAHTNARILARV-NH2 [SEQ ID NO 161] |

Reference: patent publication US20030148956A1 (PROCTER AND GAMBLE, published 2003)
